Laboratory results taken from PMC10200994.

B1: STAT1 (unphosphorylated, wild-type), fluorophore fusion [not stated] / STAT1 (unphosphorylated, wild-type), fluorophore fusion [not stated] (parent)
chain 1: MSQWYELQQLDSKFLEQVHQLYDDSFPMEIRQYLAQWLEKQDWEHAANDVSFATIRFHDLLSQLDDQYSRFSLENNFLLQHNIRKSKRNLQDNFQEDPIQMSMIIYSCLKEERKILENAQRFNQAQSGNIQSTVMLDKQKELDSKVRNVKDKVMCIEHEIKSLEDLQDEYDFKCKTLQNREHETNGVAKSDQKQEQLLLKKMYLMLDNKRKEVVHKIIELLNVTELTQNALINDELVEWKRRQQSACIGGPPNACLDQLQNWFTIVAESLQQVRQQLKKLEELEQKYTYEHDPITKNKQVLWDRTFSLFQQLIQSSFVVERQPCMPTHPQRPLVLKTGVQFTVKLRLLVKLQELNYNLKVKVLFDKDVNERNTVKGFRKFNILGTHTKVMNMEESTNGSLAAEFRHLQLKEQKNAGTRTNEGPLIVTEELHSLSFETQLCQPGLVIDLETTSLPVVVISNVSQLPSGWASILWYNMLVAEPRNLSFFLTPPCARWAQLSEVLSWQFSSVTKRGLNVDQLNMLGEKLLGPNASPDGLIPWTRFCKENINDKNFPFWLWIESILELIKKHLLPLWNDGCIMGFISKERERALLKDQQPGTFLLRFSESSREGAITFTWVERSQNGGEPDFHAVEPYTKKELSAVTFPDIIRNYKVMAAENIPENPLKYLYPNIDKDHAFGKYYSRPKEAPEPMELDGPKGTGYIKTELISVSEVHPSRLQTTDNLLPMSPEEFDEVSRIVGSVEFDSMMNTV
chain 2: B1 chain 1
B2: STAT5A (unphosphorylated, wild-type), fluorophore fusion [not stated] / STAT5A (unphosphorylated, wild-type), fluorophore fusion [not stated] (parent)
chain 1: MAGWIQAQQLQGDALRQMQVLYGQHFPIEVRHYLAQWIESQPWDAIDLDNPQDRAQATQLLEGLVQELQKKAEHQVGEDGFLLKIKLGHYATQLQKTYDRCPLELVRCIRHILYNEQRLVREANNCSSPAGILVDAMSQKHLQINQTFEELRLVTQDTENELKKLQQTQEYFIIQYQESLRIQAQFAQLAQLSPQERLSRETALQQKQVSLEAWLQREAQTLQQYRVELAEKHQKTLQLLRKQQTIILDDELIQWKRRQQLAGNGGPPEGSLDVLQSWCEKLAEIIWQNRQQIRRAEHLCQQLPIPGPVEEMLAEVNATITDIISALVTSTFIIEKQPPQVLKTQTKFAATVRLLVGGKLNVHMNPPQVKATIISEQQAKSLLKNENTRNECSGEILNNCCVMEYHQATGTLSAHFRNMSLKRIKRADRRGAESVTEEKFTVLFESQFSVGSNELVFQVKTLSLPVVVIVHGSQDHNATATVLWDNAFAEPGRVPFAVPDKVLWPQLCEALNMKFKAEVQSNRGLTKENLVFLAQKLFNNSSSHLEDYSGLSVSWSQFNRENLPGWNYTFWQWFDGVMEVLKKHHKPHWNDGAILGFVNKQQAHDLLINKPDGTFLLRFSDSEIGGITIAWKFDSPERNLWNLKPFTTRDFSIRSLADRLGDLSYLIYVFPDRPKDEVFSKYYTPVLAKAVDGYVKPQIKQVVPEFVNASADAGGSSATYMDQAPSPAVCPQAPYNMYPQNPDHVLDQDGEFDLDETMDVARHVEELLRRPMDSLDSRLSPPAGLFTSARGSLS
chain 2: B2 chain 1
B3: STAT5B (unphosphorylated, wild-type), fluorophore fusion [not stated] / STAT5B (unphosphorylated, wild-type), fluorophore fusion [not stated] (parent)
chain 1: MAVWIQAQQLQGEALHQMQALYGQHFPIEVRHYLSQWIESQAWDSVDLDNPQENIKATQLLEGLVQELQKKAEHQVGEDGFLLKIKLGHYATQLQNTYDRCPMELVRCIRHILYNEQRLVREANNGSSPAGSLADAMSQKHLQINQTFEELRLVTQDTENELKKLQQTQEYFIIQYQESLRIQAQFGPLAQLSPQERLSRETALQQKQVSLEAWLQREAQTLQQYRVELAEKHQKTLQLLRKQQTIILDDELIQWKRRQQLAGNGGPPEGSLDVLQSWCEKLAEIIWQNRQQIRRAEHLCQQLPIPGPVEEMLAEVNATITDIISALVTSTFIIEKQPPQVLKTQTKFAATVRLLVGGKLNVHMNPPQVKATIISEQQAKSLLKNENTRNDYSGEILNNCCVMEYHQATGTLSAHFRNMSLKRIKRSDRRGAESVTEEKFTILFESQFSVGGNELVFQVKTLSLPVVVIVHGSQDNNATATVLWDNAFAEPGRVPFAVPDKVLWPQLCEALNMKFKAEVQSNRGLTKENLVFLAQKLFNNSSSHLEDYSGLSVSWSQFNRENLPGRNYTFWQWFDGVMEVLKKHLKPHWNDGAILGFVNKQQAHDLLINKPDGTFLLRFSDSEIGGITIAWKFDSQERMFWNLMPFTTRDFSIRSLADRLGDLNYLIYVFPDRPKDEVYSKYYTPVPCESATAKAVDGYVKPQIKQVVPEFVNASADAGGGSATYMDQAPSPAVCPQAHYNMYPQNPDSVLDTDGDFDLEDTMDVARRVEELLGRPMDSQWIPHAQS
chain 2: B3 chain 1
B4: STAT4 (unphosphorylated, wild-type), fluorophore fusion [not stated] / STAT4 (unphosphorylated, wild-type), fluorophore fusion [not stated] (parent)
chain 1: MSQWNQVQQLEIKFLEQVDQFYDDNFPMEIRHLLAQWIENQDWEAASNNETMATILLQNLLIQLDEQLGRVSKEKNLLLIHNLKRIRKVLQGKFHGNPMHVAVVISNCLREERRILAAANMPVQGPLEKSLQSSSVSERQRNVEHKVAAIKNSVQMTEQDTKYLEDLQDEFDYRYKTIQTMDQSDKNSAMVNQEVLTLQEMLNSLDFKRKEALSKMTQIIHETDLLMNTMLIEELQDWKRRQQIACIGGPLHNGLDQLQNCFTLLAESLFQLRRQLEKLEEQSTKMTYEGDPIPMQRTHMLERVTFLIYNLFKNSFVVERQPCMPTHPQRPLVLKTLIQFTVKLRLLIKLPELNYQVKVKASIDKNVSTLSNRRFVLCGTNVKAMSIEESSNGSLSVEFRHLQPKEMKSSAGGKGNEGCHMVTEELHSITFETQICLYGLTIDLETSSLPVVMISNVSQLPNAWASIIWYNVSTNDSQNLVFFNNPPPATLSQLLEVMSWQFSSYVGRGLNSDQLHMLAEKLTVQSSYSDGHLTWAKFCKEHLPGKSFTFWTWLEAILDLIKKHILPLWIDGYVMGFVSKEKERLLLKDKMPGTFLLRFSESHLGGITFTWVDHSESGEVRFHSVEPYNKGRLSALPFADILRDYKVIMAENIPENPLKYLYPDIPKDKAFGKHYSSQPCEVSRPTERGDKGYVPSVFIPISTIRSDSTEPHSPSDLLPMSPSVYAVLRENLSPTTIETAMKSPYSAE
chain 2: B4 chain 1

Variants of: B1
Test: co-localization assay (quantitative fluorescence microscopy in HeLa cells)
Settings: with STAT1 (unphosphorylated, wild-type), bait S1-NLS, test S1-F77A, 20 cells (parent 12 cells), parent: 0.98

Row | Variant | screen value
1 | chain 1 F77A | 0.64

Variants of: B2
Test: as above
Settings: with STAT5A (unphosphorylated, wild-type), bait S5A-NES, test S5A-L82A, 19 cells (parent 13 cells), parent: 0.97

Row | Variant | screen value
2 | chain 1 L82A | 0.54

Variants of: B3
Test: as above
Settings: with STAT5B (unphosphorylated, wild-type), bait S5B-NES, test S5B-L82A, 32 cells (parent 10 cells), parent: 0.97

Row | Variant | screen value
3 | chain 1 L82A | 0.63

Variants of: B4
Test: as above
Settings: with STAT4 (unphosphorylated, wild-type), bait S4-NES, test S4-L78S, 19 cells (parent 14 cells), parent: 0.95

Row | Variant | screen value
4 | chain 1 L78S | 0.68
